Experimental data from patent US20220242973A1 (Molecular Partners, published 2022).

Target: T1, Human FAP expressed on the cell surface (WI38, CHO-FAP1.9, U87MG cells) (human, UniProt Q12884 1-760)
T1 construct: whole, on cells; Endogenous on WI38 and U87MG cells; from a human FAP cDNA (OriGene) in CHO-FAP1.9 cells; also called hFAP; FAP+ cells
T1 sequence (looked up): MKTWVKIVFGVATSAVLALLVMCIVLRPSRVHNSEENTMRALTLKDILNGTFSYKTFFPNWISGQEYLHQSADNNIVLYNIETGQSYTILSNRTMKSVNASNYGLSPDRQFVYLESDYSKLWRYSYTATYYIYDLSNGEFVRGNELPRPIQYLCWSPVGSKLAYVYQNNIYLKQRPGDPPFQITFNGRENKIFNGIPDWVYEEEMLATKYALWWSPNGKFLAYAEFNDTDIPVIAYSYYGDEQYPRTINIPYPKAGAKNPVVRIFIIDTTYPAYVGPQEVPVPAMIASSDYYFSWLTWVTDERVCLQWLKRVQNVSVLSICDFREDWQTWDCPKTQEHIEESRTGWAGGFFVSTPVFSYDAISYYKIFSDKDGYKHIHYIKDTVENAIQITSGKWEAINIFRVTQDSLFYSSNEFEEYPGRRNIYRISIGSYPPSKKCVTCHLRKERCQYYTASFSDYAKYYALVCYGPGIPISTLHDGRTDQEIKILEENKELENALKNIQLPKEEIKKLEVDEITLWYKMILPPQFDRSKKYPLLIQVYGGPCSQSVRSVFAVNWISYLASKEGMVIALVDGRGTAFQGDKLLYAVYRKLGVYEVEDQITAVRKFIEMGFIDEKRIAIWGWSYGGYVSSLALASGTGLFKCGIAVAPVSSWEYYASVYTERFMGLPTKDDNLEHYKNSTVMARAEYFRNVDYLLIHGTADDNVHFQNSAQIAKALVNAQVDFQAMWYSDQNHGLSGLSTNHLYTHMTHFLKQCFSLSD
Assay: FACS on U87MG cells (FAP on the cell surface), His-tag detected with Penta-His AF647 conjugate, median fluorescence intensity
Description: In order to determine whether the fusion of a biologically active molecule to a FAP-specific ankyrin repeat domain affects the ability of the molecule to specifically recognize and bind to FAP expressed on the surface of cells, the binding of selected ankyrin repeat fusion proteins to FAP-expressing cells was tested. U87 MG cells and WI38 cells are known to express FAP on the cell surface and they were chosen as representative cells for these experiments. FAP expression on the U87 MG and WI38 cells was confirmed by FACS analysis (data not shown).
Using multi-well plates, 40,000 cells (either U87MG or WI38) were added per well in 50 μl of PBS. 50 μl of appropriate dilutions (2× dilution steps) of ankyrin repeat fusion protein (DARPin® protein #40 or DARPin® protein #41) was then added to the cells and incubated for 30 minutes on ice. After the ankyrin repeat fusion protein-binding reaction, cells were washed twice with PBS. Direct immunofluorescent detection of the His-tagged ankyrin repeat fusion proteins using Penta-His AF647 conjugate (QIAgen) and determination of live cells using LIVE/DEAD™ Fixable Green Dead Cell Stain Kit (ThermoFisher) were then performed together in one step. […] Acquisition and FACS analysis, including the determination of median fluorescence intensity (MFI), were done within 5 days after staining using an AttuneNxT instrument. […]

B1: DARPin® protein #41 (designed binder)
chain: MRGSHHHHHHGSDLGKKLLEAARAGQDDEVRELLKAGADVNAKDYFSHTPLHLAARNGHLKIVEVLLKAGADVNAKDFAGKTPLHLAANEGHLEIVEVLLKAGADVNAQDIFGKTPADIAADAGHEDIAEVLQKAAGSPTPTPTTPTPTPTTPTPTPTGSDLGEKLLVAALYGQDDEVRILLAAGADVNAKDQWGLTPLHKAALQGHLEIVEVLLKAGADVNAKDERGHTPLHWAARFGHLEIVEVLLKAGADVNAQDQKGYTPADLAALWGHEDIAEVLQKAA
notes: Fusion of a serum albumin-specific and a FAP-specific ankyrin repeat domain
- EC50 (read off the curve): ~2 nM
